Measured values reported in PMC6019326.
Like-named read-outs stand apart in the source and are kept apart here.

Columns and labels:
Assay in all cases: SPR
[1] = target: recombinant APOL1 G2 protein (His-tag fused, risk variant) (human) (UniProt O14791)
[2] = target: recombinant APOL1 G1 protein (His-tag fused, risk variant) (human) (UniProt O14791)
[3] = target: recombinant APOL1 G2 protein (His-tag fused, risk variant) (human) (UniProt O14791); remark: listed apart in the source
[4] = target: recombinant APOL1 G1 protein (His-tag fused, risk variant) (human) (UniProt O14791); remark: listed apart in the source
[5] = target: recombinant APOL1 G0 protein (His-tag fused, reference allele) (human) (UniProt O14791)

human suPAR (soluble urokinase plasminogen activator receptor), recombinant (from UniProt Q03405 23-305)
KD for suPAR in the presence of αvβ3 integrin (5 nM) with Mn2+ [1]: 0.024 µM | KD for suPAR in the presence of αvβ3 integrin (5 nM) with Mn2+ [2]: 0.277 µM

human integrin α3β1 (from UniProt P26006 33-1051; P05556 21-728) (complex)
Kd [1]: > 1000 µM | Kd [2]: > 1000 µM

human recombinant protein integrin αvβ3 (from UniProt P06756 31-1048; P05106 27-718) (complex)
Kd [3]: 0.007 µM | Kd [4]: 0.007 µM | Kd [5]: 0.574 µM | Kd [1]: 10.7 µM | Kd [2]: 0.528 µM
